Data: the domain aggregation screens of Martell et al. (2025)

Assay: soluble fraction after stress (log2 fold change); higher = more stays soluble; pooled small domains, quantitative proteomics
Details: stress: pH 4
Outline: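 Values are log2 fold changes, and higher ones mean more of the domain stayed soluble. Each fold change reflects the soluble amount of a domain after acid stress and is taken as a measure of aggregation propensity. The stress was pH 4, applied to pooled custom libraries of small protein domains analysed by high-throughput quantitative proteomics.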

Compared with “HMKEPIYQTILSALILELNTNHFRKNDPFYSESELRKKYQVSSTTVVRVLNMLADQGYIYRIQGKGSFVSK”, “HMKESFAQLFSLLTPTEQKVAALISQGFSNKDIAAKMFISLSTVKTHTNHIFAKMGVANRNALVAKVNN” is higher in “soluble fraction (log2)” value: -0.5 for the first, -0.0677 for the second.

Compared with “HMKESRFDYDAVLLYSDKDSITEVKDAVQHLTKEFGSVFTTKKIPEKATFGKLFRIEKGEVNIIEDN”, “HMKESRLFRILYYLLQHKKATAPELAEEFEVSVRTIYRDIDYISSAGVPIYATQGKDGGIAILDSF” is higher in “soluble fraction (log2)” value: -1.22 for the first, -0.81 for the second.

First: HMKETLSINSTDFEVRRSSRRKRISVGFDTGTETFFIAAPTKLAGTDILRILGPQISRLMDRLT
Second: HMKEVDERPWGKYEVLLDAPDVKVKRITVNPGQRLSYQYHEKRAEVWTVVSGILTIILEDDKLFRG
The “soluble fraction (log2)” value of the first is lower: -0.808 for the first, 0.0694 for the second.

First: HMKFIPPSLEEARAYFVEKGSSEPEAEKFVNHFDSIGWKVGRARTPMKKWKSAANNWIANNREWNQ
Second: HMKFKDYYAALGIDRNADLEQIKKAYRKLARQYHPDVSKAPDAEARFKDAAEAYATLKNPEKRAAYDELGS
The “soluble fraction (log2)” value of the first is lower: -0.166 for the first, 0.22 for the second.

“HMKFLHLADLHLGKRVNGFSMLEDQAYILRQILTILDDERPDGVLIAGDVYDKPVPPTEAVELLD” and “HMKFLYQKAREEIISLIQDGEIKPSEKIMPERELSELLGYNRMTIKKAINSLVAEGVLMKKRGAGTFLLG” are within 0.2 log units of each other in “soluble fraction (log2)” value: -0.632 for the first, -0.45 for the second.

Going from “HMKFLYQQVYQDIKDKITSAQYQFGDLLPSEREIGEEYHVDRTTVRKAFSLLVDEGLVEKRAGKGSVVIS” to “HMKFTELEQLMLKREINTLADIARVLKTTPQAVSNWKARDQIPYHIVAKINASINKDSNDSSLSI”, the “soluble fraction (log2)” value falls from -0.52 to -0.782.

Going from “HMKFTSEKDISLLELVKAKMGFVSNTKARNVIKIGQIMVSGKVIKIPSTLIKPGTEVELARRV” to “HMKFYKMIDESDEKIENPEIMIFQIIELVSSTTYSAIINKEPVDVETLKPYLYQTIRTIIINHQS”, the “soluble fraction (log2)” value falls from 0.32 to -0.582.

Compared with “HMKGEKVTKIELSNFIKFLINDLENKGFFNPPEKKDSMIDNIYSIYNKMTLTKKELNMLWGMHKKLK”, “HMKGERHNKILELIQQHAIDRQEDLLRYLKEAGFQVTQATVSRDIRELHLVKVAAGGGQYRYVSAAAAS” is higher in “soluble fraction (log2)” value: -0.676 for the first, -0.255 for the second.

Compared with “HMKGIHDYITKDGLRVVKVHYSADPDKDVTTVEGKKWMAKALLGYPGGLEGAKWRREMEIDFNA”, “HMKGILVPASSIISDGDKNYVWTVEKGKAKKVEVTLGNADAENQEISSGLTKDSKVITNPTDSLKDGQEV” is higher in “soluble fraction (log2)” value: -0.258 for the first, 0.269 for the second.

Going from “HMKGKDLQDAVVTVVGGAENWNAIRAWAQASASDSEKREINAAFQSGKLMATMMAERLALAYQQSG” to “HMKGKITTNWVSLTSDLGWLRSELYSSGSVLEERISNEGLIELHLENFQNDLIKLLEVEGFDLIKE”, the “soluble fraction (log2)” value falls from 0.0105 to -1.73.

“HMKGQLVVFPNPASSNDMVRFNKNISFSIFDITGHLVDTKRNVNELSVGNLEAGTYILRTEQGDVLRMVI” and “HMKGRPTTAIITDERTNLRSGPGATNKTIAQAGAGEKLAIIDEKDGWYQVSRAGINGWVAGWVIDVAW” are within 0.2 log units of each other in “soluble fraction (log2)” value: -0.904 for the first, -0.945 for the second.

First: HMKGSIFLDEATKMVDNSALKSLNTFLEEYARETNNQIFLISHQETPAEVTQIKLKKVGGETSYE
Second: HMKGSPFSQLPKEKKKRILQAAIEVFAQNDYKHASTDEIASRAGISKGLLFYYFHDKKTLYFYLGEYLKR
The “soluble fraction (log2)” value of the first is lower: -0.0644 for the first, 0.173 for the second.

Compared with “HMKGTLPEMITSREEVVLKFMVNGWDAKRIASELDISVLTVRKHIANIYEKLHVQSKAEIISMAHQQKWFN”, “HMKGTSIELIVPQDIAGLRLDQVLAKLLPQWSRSRLQSWINEKHITVNGQTTTAKQKLWGNETIQIIPPI” is higher in “soluble fraction (log2)” value: -0.731 for the first, -0.0718 for the second.

Compared with “HMKHEFSEEWLDWIKSNIADGQNKNGLFKVLLNHGYAYDAVREVMQYEPTVPLDELVDPLRA”, “HMKHFNDEELDGFAGLKSDDYNEEQVELFRNIFEELHPDEIIEWTESLRRRGIEIPSSLKDEVVMMIN” is lower in “soluble fraction (log2)” value: -0.953 for the first, -1.69 for the second.

First: HMKHFTYEEMELMSIYDPGTREGLIANLEEMRGYLEPDETELRELTDSALEKLRELSDADYEQLELI
Second: HMKHMTMYEAAKIAKEVGAPKLWLTHYSPSMTRPEEFMDDVRKIFPAAYAAKDGWTMELNFDEG
The “soluble fraction (log2)” value of the first is lower: -1.48 for the first, -0.385 for the second.

First: HMKHRTQMDIQQLPAIEGKGGFEYKISIIHLSTRIKYSEIHDNYNTTTIAKVYENAIERLPPF
Second: HMKHSLNHLGLWLLPELSRRDIQLREFAHLLGTTSQGLSDLLRGQRFSSHTLAQWQLRFQEKLDEIDQAS
The “soluble fraction (log2)” value of the first is lower: -1.13 for the first, -0.236 for the second.

Compared with “HMKHTVSVDRLQPGVFVSLGGLSWLDHPFLLNRFRLTDHDQIKVLRSLGVKEIEWDPTRSTAQPLPE”, “HMKIAPRTAENQQLRKMILEIYTTSKKRVGPAKVRRMLLRDYGISISIGRVYRLMSTMNLPKMS” is higher in “soluble fraction (log2)” value: -0.724 for the first, 0.22 for the second.

Compared with “HMKIDLPIWLNKKAWEAWVEYKKERKQKLTPSIIKFQLRILEKNKEDHPEIIRNSITNGWTGLFPLK”, “HMKIEDSNTIKLKANQAYKTHYYSEAIKLYDELLTKYEPNSEAIKLNLAHAHFKAKGFAAASKLYT” is higher in “soluble fraction (log2)” value: -0.347 for the first, 0.22 for the second.

“HMKIELTDQQKSLVVDEWNKGEANPPSLLQLIRLAYPDQPHLDGRSKEGKAVKAFLATRDINPLA” and “HMKIETVENPLLERTEISALFDSKSGSLTRKEAIDLISKKARIDSSTVYAIKLSNSSGSTRIIGLFY” are within 0.2 log units of each other in “soluble fraction (log2)” value: -0.0382 for the first, 0.00271 for the second.

First: HMKIIDDIQEFAGVTKTQNTFFHIFNHLHQNGKQLILTSDRAPVMLQGMEERLLTRFKWGLVAELE
Second: HMKIKKIWFDGDYIYGMDERNNTYRQSLLWYSKLRNASAEERERYTFSTIGIHWRELDEDVSFESF
The “soluble fraction (log2)” value of the first is higher: 0.158 for the first, -1.78 for the second.

“HMKIKLQATEQQRKTLDELYVQLKKLEPTSKEDLSLLYRLENPHLVSKQEAQGLISIAIGRVGSLAIEQQ” and “HMKINKQHLAFQIFGIRAKLGLSMEQFGELLGANKSSVSGWERGTVVPSSQRLKKIAELGKISLAELLTP” are within 0.2 log units of each other in “soluble fraction (log2)” value: 0.258 for the first, 0.276 for the second.

First: HMKINVQETEVYRYLLERADRLYSMILGEERENLMERTRFFEKEVAKASLPHLPKLYDEFSIYLDRLERG
Second: HMKIPYGELIKLLNAAAPKLQDAQGWMDMEAAGQFIGSRWSYLDYGFKDWPDSFKTVHGLEIQGQRMRLA
The “soluble fraction (log2)” value of the first is lower: -0.555 for the first, -0.306 for the second.

Going from “HMKIQISGSQRIDENVVVKVAGLSFPQSLLSLEPGQIESKLMQELPVQEVSVQRRLLPPGLDIQLVE” to “HMKIQTYEDFRNAYPDIQGSLFGSAERYKTDLDWGDVAAKYDADEELKNVRNIFQLVRRYEQKYS”, the “soluble fraction (log2)” value falls from -0.246 to -0.643.

Compared with “HMKISIPQEYFEIYNVLKQRPMHINEISKILKKPVSEISGTISLMEIEGYITKLTTDQYVLKKI”, “HMKITADQEIETAINYFKKSIAEKGWKGVNPDEFKQMNDYLSETFGYSATIKFQKALDEQGLMVDE” is higher in “soluble fraction (log2)” value: -0.644 for the first, -0.429 for the second.

First: HMKITININIETLSHHIKQSGVPLGRLQESVPDYNEIVTGNKSPTYQQLEKISKLIRVPLGLLVIESPL
Second: HMKITLAESVYERIRRDIITNQLKPGEKINIRELSTRYEASETPIRLALNRLASENIIEHFPRQGMRVK
The “soluble fraction (log2)” value of the first is lower: -0.451 for the first, -0.0624 for the second.

Going from “HMKIVPEPGTVLIREYQEERHEVTVTLDGAFDYKGTLYSSLSEIARLITGTRWSGPVFFGLRS” to “HMKIYDQVVDRIKDRISKGDMPQGSALPPERQLIDELNVSRSSLREGFRILEMMGLIESIPGKGRFVRTSR”, the “soluble fraction (log2)” value falls from -0.353 to -0.619.

Compared with “HMKKAIYPGSFDPLTLGHIDIIKRASGIVDELVVGVLNNSAKNSLFSLDERVSMIEEMTKDLPNVSVTSFD”, “HMKKEDFLEILRDYLKKGFSEDEVMDILRDYEEYFVDGIIEGKSEIEIIQSLGSPKEIANELLAES” is lower in “soluble fraction (log2)” value: -0.0125 for the first, -0.754 for the second.

“HMKKEQVIVPNVVGDTYDVALRKLTDAKLKVGETFPADREGHQGVIEKQSPAAGETVDEDTPVALFFKV” and “HMKKERITWDERLERFAKYITENESLPYPSSKEHAWFEENKALYDAGELESVRAQSFSFLLKILRRMNLI” are within 0.2 log units of each other in “soluble fraction (log2)” value: -0.384 for the first, -0.449 for the second.

Compared with “HMKKGATVSGVIVEKTKKSLIIDLGAKTEGVVADKEFEFAIDFVKELKKGDEVKAIVISTDNDKGQVVLSL”, “HMKKHALFTLFKHHNANGTTVWYARFWDDATQRYAIARSTGVLAQGKRERHDEAITVAREMASSIQFS” is lower in “soluble fraction (log2)” value: ≥ 0.43 for the first, 0.264 for the second.

Going from “HMKKHAPSLMRQIRRELKEGKSPESLLSKAKLISDSYYRSLSFYLLIPYLSPNSKQFQEAISLAGKDID” to “HMKKKSYIVSFATDEDAQRFAREGFEVISLSGRQITVSLKGEMMPLVKALGSYQVVGLETVA”, the “soluble fraction (log2)” value falls from -0.216 to -0.72.

First: HMKKLPDDANDIIERVSSRLAQKFRFGYHTIDDMKQQAALFAWEGIYDSWDDSRPLENFLWIHVRNRLYN
Second: HMKKLTGVQKAAILMIALGPDISSSIIKRLPENMVERITYEIANMTKITAQQRNDILKEFMDMTVAQ
The “soluble fraction (log2)” value of the first is higher: 0.18 for the first, -0.479 for the second.

Going from “HMKKNTEALDYYKKAGANFPEDEVISSEYLFRAAQLQEVLGKTDEAVAIYKDIKAKYPTTEIGLNVDKFIL” to “HMKKQLKSEAVADELRRKILSGGFPDKRLPRKDELTEYFQVSQKTVEAALKMLTAEGLIRGVKGTGIFVNG”, the “soluble fraction (log2)” value rises from -0.181 to 0.156.

“HMKKQLTISDGDWAGKVSSMLEDMGVINSASEFDKYLSDNGYSNVIKSGTYDVSPEDTFQELAEKIT” and “HMKKRDAEIMLQREFKLTEAIAMVRDRDIQELLPIALYFKVNINQPTAEIRYNLLNIAKSKTQEFIEAFD” are within 0.2 log units of each other in “soluble fraction (log2)” value: -1.05 for the first, -1.03 for the second.

“HMKKRDANSQGTRLILFYMLQRLHTEYKLQGFVTYNQRRSFREIYDAYHALGGNGFGTAMWEEVKELDLK” and “HMKKTAAKVLGESEGKPVTVQSGRYGPYVQLGSIRATLPKDLEQDDVTLDRALELISAKAERAGK” are within 0.2 log units of each other in “soluble fraction (log2)” value: -0.0682 for the first, 0.0406 for the second.

First: HMKKTDFNVENYDIEELAAILNFKYVPLNQGLIRDRIKDMKQRFKNKPEYIKFFTDVEIKLVNNLNLFN
Second: HMKKTFSKSSVMEAIFRDIPNITIPNAHEVYTLIKNISVMNKRKSITSEDIEKAYDALGLTP
The “soluble fraction (log2)” value of the first is lower: -1.01 for the first, 0.145 for the second.

Going from “HMKKTPLSELTNRAVELFIETVFMERNYSVSSQRQFISALKIFTVFYPQTKIHNLSLERLQSSFDKLLN” to “HMKKTTEFAVTPEFQQRLEASPELKAAFQALTPGRQRAHLLFFAAPKQAQTRQARIEKSLPQIMAGKGLN”, the “soluble fraction (log2)” value rises from -0.564 to -0.0768.

“HMKKTVTDSVELLTFLKDIFTNTSTNKLRKMLTTGRVTVNNIVIHKAKHILVQNDVVEIGDK” and “HMKKVIEFKDVSFAFEKKPILQDFNLLVQNKDRIGIVGDNGVGKSTLLNLIAERLQPQSGQVII” are within 0.2 log units of each other in “soluble fraction (log2)” value: -0.0253 for the first, 0.0777 for the second.

With “HMKKVSVKPILELRAAGISMRKIETLMHVSRHTISAIYKAADAYSISWDNVKDFDEDKIYEMLFPPTP” the “soluble fraction (log2)” value was ≥ 0.43.
